Laboratory results as given in US20240000840A1.

Molecular target: CD20 on CD20+ human Burkitt's lymphoma cell lines (Ramos, Raji) (human) (UniProt P11836)
Experiment: cell-based or functional assay

Chain of UniProt P11836 (P11836 whole entry): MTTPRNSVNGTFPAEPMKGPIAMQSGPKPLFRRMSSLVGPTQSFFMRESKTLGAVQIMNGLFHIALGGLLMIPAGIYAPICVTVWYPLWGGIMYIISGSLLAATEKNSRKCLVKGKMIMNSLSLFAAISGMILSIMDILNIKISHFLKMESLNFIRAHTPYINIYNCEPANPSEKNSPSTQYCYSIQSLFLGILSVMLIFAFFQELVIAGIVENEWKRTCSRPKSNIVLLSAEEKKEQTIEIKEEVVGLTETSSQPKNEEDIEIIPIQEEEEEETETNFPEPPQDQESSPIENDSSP

% of Raji alive, AB-101 + RTX, 24 h, batch 19AB101PN001: 13.8%
% of Raji alive, AB-101 + RTX, 24 h, batch 19AB101PN004: 21.1%
% of Raji alive, AB-101 + RTX, 24 h, batch 19AB101PN005: 34.1%
% of Raji alive, AB-101 + RTX, 24 h, batch 20AB101PG001: 25.8%
% of Raji alive, AB-101 + RTX, 24 h, batch 20AB101PG002: 14.3%
% of Raji alive, AB-101 + RTX, 24 h, batch 20AB101PN001: 16.8%
% of Raji alive, AB-101 + RTX, 24 h, batch 20AB101PN002: 26.6%
% of Raji alive, AB-101 + RTX, 24 h, batch 20AB101PN003: 28.4%
% of Raji alive, AB-101 + RTX, 24 h, batch 20AB101PN004: 34.3%
% of Raji alive, AB-101 + RTX, 48 h, batch 19AB101PN001: 6.6%
% of Raji alive, AB-101 + RTX, 48 h, batch 19AB101PN004: 8.9%
% of Raji alive, AB-101 + RTX, 48 h, batch 19AB101PN005: 18.6%
% of Raji alive, AB-101 + RTX, 48 h, batch 20AB101PG001: 11.7%
% of Raji alive, AB-101 + RTX, 48 h, batch 20AB101PG002: 5.5%
% of Raji alive, AB-101 + RTX, 48 h, batch 20AB101PN001: 9.2%
% of Raji alive, AB-101 + RTX, 48 h, batch 20AB101PN002: 12.5%
% of Raji alive, AB-101 + RTX, 48 h, batch 20AB101PN003: 13.3%
% of Raji alive, AB-101 + RTX, 48 h, batch 20AB101PN004: 18.6%
% of Raji alive, AB-101 + RTX, 72 h, batch 19AB101PN001: 4.5%
% of Raji alive, AB-101 + RTX, 72 h, batch 19AB101PN004: 9.4%
% of Raji alive, AB-101 + RTX, 72 h, batch 19AB101PN005: 11.5%
% of Raji alive, AB-101 + RTX, 72 h, batch 20AB101PG001: 9.6%
% of Raji alive, AB-101 + RTX, 72 h, batch 20AB101PG002: 3.6%
% of Raji alive, AB-101 + RTX, 72 h, batch 20AB101PN001: 7.5%
% of Raji alive, AB-101 + RTX, 72 h, batch 20AB101PN002: 13.9%
% of Raji alive, AB-101 + RTX, 72 h, batch 20AB101PN003: 12.3%
% of Raji alive, AB-101 + RTX, 72 h, batch 20AB101PN004: 18.3%
% of Ramos alive, AB-101 + RTX, 24 h, AVE of 9 batches (raw data table; differs from 47.6 in Table 26): 47.9%
% of Ramos alive, AB-101 + RTX, 24 h, batch 19AB101PN001: 29.5%
% of Ramos alive, AB-101 + RTX, 24 h, batch 19AB101PN004: 37.1%
% of Ramos alive, AB-101 + RTX, 24 h, batch 19AB101PN005: 59.7%
% of Ramos alive, AB-101 + RTX, 24 h, batch 20AB101PG001: 54.1%
% of Ramos alive, AB-101 + RTX, 24 h, batch 20AB101PG002: 22.1%
% of Ramos alive, AB-101 + RTX, 24 h, batch 20AB101PN001: 46.2%
% of Ramos alive, AB-101 + RTX, 24 h, batch 20AB101PN003: 57.7%
% of Ramos alive, AB-101 + RTX, 24 h, batch 20AB101PN004: 54.8%
% of Ramos alive, AB-101 + RTX, 48 h, batch 19AB101PN001: 12.1%
% of Ramos alive, AB-101 + RTX, 48 h, batch 19AB101PN004: 18.6%
% of Ramos alive, AB-101 + RTX, 48 h, batch 19AB101PN005: 38.1%
% of Ramos alive, AB-101 + RTX, 48 h, batch 20AB101PG001: 37.4%
% of Ramos alive, AB-101 + RTX, 48 h, batch 20AB101PG002: 7.7%
% of Ramos alive, AB-101 + RTX, 48 h, batch 20AB101PN001: 22.8%
% of Ramos alive, AB-101 + RTX, 48 h, batch 20AB101PN002: 53%
% of Ramos alive, AB-101 + RTX, 48 h, batch 20AB101PN003: 34.4%
% of Ramos alive, AB-101 + RTX, 48 h, batch 20AB101PN004: 29.2%
% of Ramos alive, AB-101 + RTX, 72 h, batch 19AB101PN001: 6.6%
% of Ramos alive, AB-101 + RTX, 72 h, batch 19AB101PN004: 11.4%
% of Ramos alive, AB-101 + RTX, 72 h, batch 19AB101PN005: 30.9%
% of Ramos alive, AB-101 + RTX, 72 h, batch 20AB101PG001: 23.5%
% of Ramos alive, AB-101 + RTX, 72 h, batch 20AB101PG002: 4.1%
% of Ramos alive, AB-101 + RTX, 72 h, batch 20AB101PN001: 11%
% of Ramos alive, AB-101 + RTX, 72 h, batch 20AB101PN002: 40.3%
% of Ramos alive, AB-101 + RTX, 72 h, batch 20AB101PN003: 21.8%
% of Ramos alive, AB-101 + RTX, 72 h, batch 20AB101PN004: 21.3%
lysis of target cells (Raji), AB-101 combined with rituximab, end of the 72 hour co-culture, E:T 1:1 (live-cell analysis, Example 9): 90%
lysis of target cells (Ramos), AB-101 combined with rituximab, end of 72 hrs co-culture, E:T 1:1 (live-cell analysis, Example 9): 80%
Substance: Rituximab (Mabthera or Rituxan) (antibody)
Viable Raji cells (%), AB-101 + RTX, 24 hrs, mean of 9 AB-101 batches (long-term ADCC, IncuCyte): 23.9%
Viable Raji cells (%), AB-101 + RTX, 48 hrs, mean of 9 AB-101 batches (long-term ADCC, IncuCyte): 11.7%
Viable Raji cells (%), AB-101 + RTX, 72 hrs, mean of 9 AB-101 batches (long-term ADCC, IncuCyte): 10.1%
Viable Ramos cells (%), AB-101 + RTX, 24 hrs, mean of 9 AB-101 batches (long-term ADCC, IncuCyte): 47.6%
Viable Ramos cells (%), AB-101 + RTX, 48 hrs, mean of 9 AB-101 batches (long-term ADCC, IncuCyte): 28.1%
Viable Ramos cells (%), AB-101 + RTX, 72 hrs, mean of 9 AB-101 batches (long-term ADCC, IncuCyte): 19%
